From a protein production outcome set (Wang et al. 2014)

Assay: label from the status in PepcDB records
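Also: failed if final PepcDB status was selected cloned or expressed and not failed if soluble or beyond.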

With “MVKTMSEVNFNSKAFTYADNALVQKSASEVLLNLLSIQPEEDVLDIGCGPGHITKKIAKITNGSVQGIDVSQGMIEQAISSNKDLPNLKYSVMDAENLELNTKFDVIVCNSCFQWFQKPDQVLMRCFNVLKEGGRIGIQAPATQSYCPNFISAIEKIRMHPYTREVFNHFKSPWFFFDSKDEYEQLFRNHGFDIIYSELREESNLFSVEQAYKIYQSGAENGYLNQSYYTVTLTDNYISTFRELVKEALQEQADNSGMINLKFERIYLVAKKQ” the protein production was “failed”.
With “MSLLLTNHIGYERLGPKKAIIQTEQPHLSSYTAQLICATSEQTVATFAVEEQGKVANWHQGYFYLIDFSSFTDSGDYFLQVEDSRSSSFTVGEHILLEQTLSDVIHYFKSQRCGGVFDQQDRQVPVLNANQTADVHGGWYDASGDVSKYLSHLSYANYLNPQQTPMVVWNILKGLSLLEGSEDIAAFTRTRLIEEALFGADFLVRMQNEKGFFYMTVFDKWSKDTAQREICAYETQLGHKFDDYQAGFRQGGGVAIAALAAASRLGVHGEYDQQKYRNAAENGYWHLKEHNTQYLNDGEENIIDEYCALLASVELFKATKETRYLEESRLWAQRLVARQMSDEQIQHFWSANQDGSRPYFHAAEAGLPVIALCEYLAIEDDSVQTESVKRIVNRACEFEIKISNKVTNPFGYPRQYVKGVNESKRDAFFVAHNNESGYWWQGENARLGSLATMAYLAQPHIASQEIQQQLSVFAQDALNWIVGLNPYDMCMLDGHGRNNPDYLPQYGFFNAKGGVCNGITGGFEDEEDIAFNPPAQKDDMLQNWRWGEQWIPHGAWYLLAIMSQAQHISQLATSKNIKEGHHHHHH” the protein production was “not failed”.
With “MGNYLLRKLSCLGENQKKPKKGNPDEERKRQEMTTFERKLQDQDKKSQEVSSTSNQENENGSGSEEVCYTVINHIPHQRSSLSSNDDGYENIDSLTRKVRQFRERSETEYALLRTSVSRPCSCTHEHDYEVVFPH” the protein production was “not failed”.
With “MTDLLLDGSEADNAQTVLNAARIELLSPRLANQIAAGEVVERPASVIKELLENSLDSGARRIDIDVEQAGIKLLKVRDDGGGISSDDLPLALARHATSKIRDLEDLERVMSLGFRGEALASISSVARLTLTSRTRDADQAWQVETEGRDMDARVQPAAHPVGTSVEVRDLFFNTPARRKFLKAEKTEFDHLHEVIKRMALARFDVAFHLRHNGKTVLSLHEAHDDTARARRVSAICGPGFLEQALPIEIERNGLHLWGWVGLPTFSRSQADLQYFFVNGRAVRDKLVAHAVRQAYRDVLFNGRHPTFVLFFEVDPAAVDVNVHPTKHEVRFRDGRMVHDFLYGTLHRALGDVRPENQLGGSVPAAAEPRPTGPDAGEFGPQGEMRLANNVLEQPQGEPFARPAGGGSGSGYQYSPRPTTGVPVAEAQSAYREFFAPLPGTTPSALPESPSDIPPLGYALAQLKGIYILAENAHGLVLVDMHAAHERIMYERLKIAMANEGLSGQPLLVPESIAVSQREADCAEEHITTFQRLGFELQRLGPETLAIRQIPALLKQAEANRLVSDVLADLMEYGTSDRVQAHMNELLGTMACHGAIRANRRLAIPEMNGLLRDMENTERSGQCNHGRPTWTQMGLSDLDKLFLRGQ” the protein production was “failed”.
In the case of “PGLSLRTLDMDRLEEEVRTVRDIYNDAWSDNWGFVPMTEGELQQLADELKQIVDPEIVFFVEHEGTPVGFSVALPDVNQALRHVPDGRLFPYGVPSGLTTLFLHMQYGVHECRMPLMGIRKDYQGKGLDSMLVLATIENGPANGYAACEMSWVLDTNDRLKNHVESLGAVVDKEYAMFETPLSQND”, the protein production is reported as “failed”.
With “MNIKREQVFVWSGKIRLFHWINVIAILLLIVIGVVILNGKLFGVSTDGKILLKTIHVIVGYVFATNLIFRLIIAFIGKTYEKWGKMLPFNKGFTEELIEFTQQKRLTYKGHNPAGKLMVLALLSFMSVQMISGLVIAGTDIYYPPFGNYFIQSIAIDKDNLAVIKPYSKENIDEASYQAMRDFRKPFITAHVYSFYCLLFLIPLHIIGVIVAERRERSAIVSAMFNGYKYLPKDEPTDH” the protein production was “failed”.
In the case of “ASHLQFVQPKKAPPLSVSLIQGNIPQDLKWLTEYQFKTLMIYANLTRSEWGRDLIVWPESSIPMFQTDIQPFLDAMNQQAKNRGSAWVTGIPYWDVTGSREVGTPLYYNSIMASGDNSQGLYKKQRLVPFGEYIPLSGLLSWVLPALQNDPSMSGFSQGSNNQKPLMIKGHRLAAAICYEVAYPNLTRRNAENSDFLVTVSNDAWFTGTAGPMQHLQMVQMRAKENGRWFIRATNTGVTAFIDSQGHIVKQAPIDKEAVLRGDLPAMQGETLYTRLSDWPILLFSVLLLILGWIYRPRQVDVSFKSRR”, the protein production is reported as “failed”.
For “MNSSESKSLVVIGGGGHASVLVDILRSQQREILAIVSPENISQRRIFSGITHLKNDDDILRFSPDSVNLVNGVGMLPKSGLKRKLNEYFLSLGYTFETVISDSAQVSSFAEIEQGAQVFSGAIIQAGVVIDAHTIINSGVIIEHDCHIGEYNHIAPKATLCGQVTTHSNVYVGANATVIQNITLEQGSIVGAGAIVTKNISSEQICYPSRSVLK”, the protein production was “failed”.
With “MLLTLALVILFATIMVFFSQEFIRTFKKILAIRGAKLLIPLGIASWLIYNFDYLFIWVIYYIREVLQAVLAFLTRIMPFKPYSTSIALIILLTTVSVGPVLLLDLIYRKRTYKGYAYPYLTSTLILIFCTLILLVVS” the protein production was “failed”.
In the case of “RNPLFTCVISSIETTLSIPISGVHRDVIKYTPSADVELVFYGKSLTLKTPPIDATGSPTPATITRACVELKNIKNLHIDAGAFVKPKIPFIEIDEKPTGRIEEGKAMNNSKELYMKGYLLGKNLDAELLIVGESVPGGTTTALGVLLGLGYDAEGKVSSGSINNPHELKIKVVREGLKKAGINEKSSVFDVLNAVGDKMMPVVAGLAISFAERNKPVILAGGTQMSAVLAVIKEINKKVLDKNLIAIGTTEFVLNDKKGDLKGIVEQIGNVPVLASKFYFEKAKIEGLKNYCKGSVKEGVGAGGIAVYSIVNDL”, the protein production is reported as “failed”.
With “MSALDCPAGTVLFRAGQDCPGFLRLDEGSIRVTLTAANGREVVLYRVRPGDVCLQTFACLTEGRSYSAEGVAETRVRGHLMSHADFRTALARDEAFRTEVMQAVARRFADFEHLVEDVALTGFDTRLARVLLRLAKGDTVAATHEALAAETASGRAFVSRRLAEFARQGLVELARGRVTLCDRSGLERIAAEER” the protein production was “not failed”.
For “MEKGTLVEFRVQGDRRLGVVDRPDGKTRWFVVDERGQSHSLAPRQITYTVNGNTYKPSEIDRFLEEVKPYLDPSSLEVAWELLVEDGETVTPSQMANLLFSESNSAPSYAAHCLLSDDKLYFKQKGDAYEPRTAAQVADRKHQIEVEALKARGQQEFLTRVEQALQGEAVEWQRHDRQRLEGLEKYGTLLADIVKVGLNYDSLARAYPPPAPVLETMNMLGRPATPQGAFQLLVDLGWWSATENLFLRRSSIPVQFPSKVLEVAQQRLDFPPTDLDTNRLDLTHLKVYTVDDESTTEIDDGLSWEKLPDDRERLWVHIADPTRYLAPEDDLDLEARKRGSTVYLPTGMIPMFPEVLATGPMSLVQGRVCCALSFGVVLDGTGAVQDFTIHPSLIKPTYRLTYEDVDEMLELGVQAEPEIAAIATWATKRKSWRYNQGAISINMPEAMIKVKNDDISIDILDDSRSRQLVAEMMILAGEVAARYGQVHNIPLPFRGQPQPELPPEDELLRLPAGFVRACAMRRCMPKSEMSITPVRHAGLGLDTYTQATSPIRRYSDLLTHFQLKAHLRGEVPPFTAEELKEVMMTVTSTTQELTMVERQTNRYWALEYLRRHPEEIWQVTVLMWLREDSNLALILLEDLGLQLPMVFKRSVRLGEQVLVKVSISDPQKDVIQFQEIIYQEAQTAAN”, the protein production was “failed”.
For “TLRNYPLTCKVVYSYKASQPDELTIEEHEVLEVIEDGDMEDWVKARNKVGQVGYVPEKYLQFPTS”, the protein production was “not failed”.
For “MLLHLSDLHFGTEKPECLTAIEDFCRQHRPEVIVVSGDLTQRARFIQFYNCKQFLESLNVPYLVVPGNHDIPLYHLWNRFFSPFVRYQFFFGELEPTLETEHFFIVGVNSIRRRYHTRGYISLEQIQKTNEILKQAPSHKLKLVVLHQPFYTPPDQPHGIKDCPVLGRMALDNWSKSGLFGVLHGHLHKTAVYDLTQIYQLRVDESVYDIHAGTATSYRLYKNLPNSFNVILNDGRVEHYWFDPASKAFVLKTDLYEK”, the protein production was “failed”.
